Results: US9045527 (WILLIAM MARSH RICE UNIVERSITY, dated 2015)
Where no end group is shown, it is not given here.

Experiments:
[1] = target: T1, CAL PDZ domain (CALP), wild type (UniProt Q9HD26 278-362); test: fluorescence anisotropy displacement of a fluorescent reporter peptide
Protocol: (§1) Protein binding studies: Fluorescence anisotropy inhibition binding assays were performed using standard procedures. […] Following equilibration, fluorescence anisotropy values were determined using a Tecan Infinite M1000 plate reader (n=3). Inhibitor equilibrium dissociation (Ki) constants were estimated as described. DMSO and rhodium(II) acetate were used as negative controls for unlabeled and labeled peptides, respectively.

CALP-H301A mutant = CALP-H301A mutant (UniProt Q9HD26 278-362); test: as above
Protocol: as §1

K3a,eRh2 metallopeptide = target: T2, K3a,eRh2 metallopeptide (chain 1 pos 9 (heptad a) and pos 13 (heptad e): Glu side-chain carboxylates bridged by one dirhodium(II) centre, written E. N-terminal acetyl per paragraph 78. C-terminal form not stated.); test: thermal denaturation of an equimolar mixture, CD
T2 peptide: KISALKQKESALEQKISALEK

[2] = target: T1, CAL PDZ domain (CALP), wild type; test: fluorescence anisotropy displacement of a fluorescent reporter peptide; apparent Ki, not significantly different from Rh2(OAc)4
Protocol: as §1

B1: E^RhVQSTRL metallopeptide (peptide)
peptide: Ac-E(dirhodium)VQSTRL-OH
modifications: also: dirhodium metal complex at Glu side-chain carboxylate
Question: With B1 as the binder, how does the Ki [1] read?
Answer: 0.56 µM

Question: What about the Ki (CALP-H301A mutant) of the same binder?
Answer: 9.2 µM

B2: E3gC peptide (peptide)
peptide: Ac-EISALEKCISALEQEISALEK
Question: Does B2 bind (K3a,eRh2 metallopeptide)?
Answer: binds

B3: VQD^RhTRL metallopeptide (peptide)
peptide: Ac-VQD(dirhodium)TRL-OH
modifications: also: dirhodium metal complex at Asp side-chain carboxylate
Question: How did the Ki [2] turn out when B3 was run?
Answer: 6.3 µM

B4: E^RhWPTSII metallopeptide (peptide)
peptide: Ac-E(dirhodium)WPTSII-OH
modifications: also: dirhodium metal complex at Glu side chain
Question: B4 was tested. Which Ki [1] did it give?
Answer: 1.7 µM
